From article PMC12828403

Biological target: polyketide synthase 16 (Pks16) (Dictyostelium discoideum (endogenous in AX2-214 cells)) (UniProt Q869W9)
Assay: cryo-EM structure; shotgun EM of endogenous assemblies in a heterogeneous pool of SEC and mixed-bed IEX fractions of D. discoideum lysate; 50 mM Hepes pH 7.4, 100 mM NaCl, 3 mM MgSO4, 0.1 mM EGTA, 1 mM DTT, 2% glycerol; 200 kV Glacios; proteins identified by MS of the same sample; AlphaFold 3 models fitted into the maps

- stoichiometry N: 2
Substance: polyketide synthase 16 (Pks16), Q869W9 1-2603
